This is an account of results in paper PMC3492748.

Assay [1] deals with geminin (Xenopus laevis (endogenous in eggs and embryos)) (UniProt O93352). In words: co-IP.
The target in assay [2] is Cdt1 (Xenopus laevis (endogenous in eggs and embryos)) (UniProt Q9I9A7). In words: co-IP.

In the case of “Cdt1 (from UniProt Q9I9A7 1-617) (natural protein)”, in assay [1], the decline of co-precipitation over 20 minutes after fertilisation is > 50%.

For “geminin (from UniProt O93352 1-219) (natural protein)”, the decline of co-precipitation over 20 minutes after fertilisation in assay [2] is > 50%.
